Drawing on the supplement of paper PMC10567573, this text covers protein stability index for 94 variants.

B1: ATE1 (parent)
chain: DYFPSEDFYRCGYCKNESGSRSNG
B2: FADS1 (parent)
chain: LNFQIEHHLFPTMPRHNYHKVAPL
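Further: lentivirally expressed fusions sorted by FACS into six bins by GFP to DsRed ratio, PSI derived from sequencing read proportions per bin multiplied by bin number.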

The first data set covers variants of B1. The data set can be described thus: protein stability index of a GFP-peptide fusion (GPS, HEK-293T) (PSI 1-6); higher = more stable. To be noted: c terminus: a fixed tail appended.
With DYIPSEDFYRCGYCKNESGSRSNG [F3I], the protein stability index is 2.27. Regarding DYVPSEDFYRCGYCKNESGSRSNG [F3V], the protein stability index was 2.13. On to DYDPSEDFYRCGYCKNESGSRSNG [F3D], for which the protein stability index came out at 2.61. Still for that read-out and setting: the figure for DYTPSEDFYRCGYCKNESGSRSNG [F3T] is 2.45; for DYQPSEDFYRCGYCKNESGSRSNG [F3Q] it is 3.12. Still for that read-out and setting: the figure for DYYPSEDFYRCGYCKNESGSRSNG [F3Y] is 2.14; for DYMPSEDFYRCGYCKNESGSRSNG [F3M] it is 2.99.

Take DYNPSEDFYRCGYCKNESGSRSNG [F3N]: the protein stability index was determined as 2.08. The same measure, in the same setting: the figure for DYAPSEDFYRCGYCKNESGSRSNG [F3A] is 2.45; for DYKPSEDFYRCGYCKNESGSRSNG [F3K] it is 2.44. As to DYGPSEDFYRCGYCKNESGSRSNG [F3G], the protein stability index came to 3.35.

With DYPPSEDFYRCGYCKNESGSRSNG [F3P], the protein stability index turned out to be 3.21. In the case of DYLPSEDFYRCGYCKNESGSRSNG [F3L], the protein stability index was 1.83.

On to DYHPSEDFYRCGYCKNESGSRSNG [F3H], for which the protein stability index was found to be 1.8. With DYWPSEDFYRCGYCKNESGSRSNG [F3W], the protein stability index was 2.85. Same read-out and setting: the figure for DYSPSEDFYRCGYCKNESGSRSNG [F3S] is 2.83; for DYRPSEDFYRCGYCKNESGSRSNG [F3R] it is 2.58. For DYCPSEDFYRCGYCKNESGSRSNG [F3C], the protein stability index stood at 1.49. In the case of DYFPPEDFYRCGYCKNESGSRSNG [S5P], the protein stability index is 2.32. The same measure, in the same setting: the result for DYFPAEDFYRCGYCKNESGSRSNG [S5A] reads 2.19; that for DYFPLEDFYRCGYCKNESGSRSNG [S5L], 1.61; that for DYFPCEDFYRCGYCKNESGSRSNG [S5C], 1.52. Same read-out and setting: the result for DYFPQEDFYRCGYCKNESGSRSNG [S5Q] reads 2.41; that for DYFPGEDFYRCGYCKNESGSRSNG [S5G], 2.17. Regarding DYFPFEDFYRCGYCKNESGSRSNG [S5F], the protein stability index was determined as 2.01. For DYFPIEDFYRCGYCKNESGSRSNG [S5I], the protein stability index was found to be 1.88. As for DYFPKEDFYRCGYCKNESGSRSNG [S5K], the protein stability index turned out to be 2.02. Consider DYFPNEDFYRCGYCKNESGSRSNG [S5N], for which the protein stability index is 1.61.

For the variant DYFPMEDFYRCGYCKNESGSRSNG [S5M], the protein stability index came out at 1.42. In the case of DYFPDEDFYRCGYCKNESGSRSNG [S5D], the protein stability index came out at 2.46.

Take DYFPHEDFYRCGYCKNESGSRSNG [S5H]: the protein stability index was determined as 1.98. As for TYFPSEDFYRCGYCKNESGSRSNG [D1T], the protein stability index stood at 2.24. On to PYFPSEDFYRCGYCKNESGSRSNG [D1P], for which the protein stability index was 2.35.

As to FYFPSEDFYRCGYCKNESGSRSNG [D1F], the protein stability index was determined as 1.84. Take EYFPSEDFYRCGYCKNESGSRSNG [D1E]: the protein stability index is 1.65. For the variant RYFPSEDFYRCGYCKNESGSRSNG [D1R], the protein stability index was found to be 1.74. Turning to WYFPSEDFYRCGYCKNESGSRSNG [D1W], the protein stability index was determined as 3.35. With MYFPSEDFYRCGYCKNESGSRSNG [D1M], the protein stability index was determined as 2.06. With QYFPSEDFYRCGYCKNESGSRSNG [D1Q], the protein stability index is 1.89.

On to CYFPSEDFYRCGYCKNESGSRSNG [D1C], for which the protein stability index turned out to be 2.26. Turning to AYFPSEDFYRCGYCKNESGSRSNG [D1A], the protein stability index came to 2.3. Still for that read-out and setting: the result for YYFPSEDFYRCGYCKNESGSRSNG [D1Y] reads 3.1.

As for IYFPSEDFYRCGYCKNESGSRSNG [D1I], the protein stability index turned out to be 1.23. Consider HYFPSEDFYRCGYCKNESGSRSNG [D1H], for which the protein stability index amounted to 2.58. As to VYFPSEDFYRCGYCKNESGSRSNG [D1V], the protein stability index was found to be 2.58. As for NYFPSEDFYRCGYCKNESGSRSNG [D1N], the protein stability index came out at 2. For the variant LYFPSEDFYRCGYCKNESGSRSNG [D1L], the protein stability index is 2.38. With SYFPSEDFYRCGYCKNESGSRSNG [D1S], the protein stability index was found to be 2.15. As to KYFPSEDFYRCGYCKNESGSRSNG [D1K], the protein stability index turned out to be 2.28. As to DYFHSEDFYRCGYCKNESGSRSNG [P4H], the protein stability index turned out to be 1.29. As to DYFTSEDFYRCGYCKNESGSRSNG [P4T], the protein stability index is 2.26. In the case of DYFRSEDFYRCGYCKNESGSRSNG [P4R], the protein stability index was determined as 1.79. DYFMSEDFYRCGYCKNESGSRSNG [P4M]: the protein stability index was found to be 2.59.

Regarding DYFISEDFYRCGYCKNESGSRSNG [P4I], the protein stability index is 1.45. With DYFCSEDFYRCGYCKNESGSRSNG [P4C], the protein stability index stood at 2.08. As to DYFWSEDFYRCGYCKNESGSRSNG [P4W], the protein stability index is 1.08. Regarding DYFNSEDFYRCGYCKNESGSRSNG [P4N], the protein stability index amounted to 2.16. For the variant DYFSSEDFYRCGYCKNESGSRSNG [P4S], the protein stability index was 3.09. With DYFESEDFYRCGYCKNESGSRSNG [P4E], the protein stability index was 2.21. As to DYFVSEDFYRCGYCKNESGSRSNG [P4V], the protein stability index stood at 1.18. With DYFQSEDFYRCGYCKNESGSRSNG [P4Q], the protein stability index was found to be 2.77. DYFFSEDFYRCGYCKNESGSRSNG [P4F]: the protein stability index was 1.43. Consider DYFKSEDFYRCGYCKNESGSRSNG [P4K], for which the protein stability index came to 1.92. With DYFLSEDFYRCGYCKNESGSRSNG [P4L], the protein stability index was 2.53. For the variant DYFDSEDFYRCGYCKNESGSRSNG [P4D], the protein stability index turned out to be 2.07. The same measure, in the same setting: the result for DVFPSEDFYRCGYCKNESGSRSNG [Y2V] reads 2.18; that for DAFPSEDFYRCGYCKNESGSRSNG [Y2A], 3.05; that for DSFPSEDFYRCGYCKNESGSRSNG [Y2S], 2.44. With DCFPSEDFYRCGYCKNESGSRSNG [Y2C], the protein stability index is 2.82. On the same count and under the same terms, the figure for DPFPSEDFYRCGYCKNESGSRSNG [Y2P] is 2.64; for DTFPSEDFYRCGYCKNESGSRSNG [Y2T] it is 2.63; for DRFPSEDFYRCGYCKNESGSRSNG [Y2R] it is 4.56. With DHFPSEDFYRCGYCKNESGSRSNG [Y2H], the protein stability index was 2.37.

With DWFPSEDFYRCGYCKNESGSRSNG [Y2W], the protein stability index came to 1.24. With DDFPSEDFYRCGYCKNESGSRSNG [Y2D], the protein stability index was 2.53. Still for that read-out and setting: the figure for DKFPSEDFYRCGYCKNESGSRSNG [Y2K] is 2.38; for DGFPSEDFYRCGYCKNESGSRSNG [Y2G] it is 2.56. As for DFFPSEDFYRCGYCKNESGSRSNG [Y2F], the protein stability index is 1.82. Take DMFPSEDFYRCGYCKNESGSRSNG [Y2M]: the protein stability index came out at 1.36.

On to DLFPSEDFYRCGYCKNESGSRSNG [Y2L], for which the protein stability index turned out to be 2.43. Still for that read-out and setting: the result for DIFPSEDFYRCGYCKNESGSRSNG [Y2I] reads 2.09. Same read-out and setting: the result for DNFPSEDFYRCGYCKNESGSRSNG [Y2N] reads 2.36; that for DEFPSEDFYRCGYCKNESGSRSNG [Y2E], 2.63.

Variants of B2 are the subject of the next data set. The description is as above. As to conditions: c terminus: a fixed tail appended.
LNFQIEHHLFPTMPRHNYHKVAPV [L24V]: the protein stability index stood at 1.5. Same read-out and setting: the result for LNFQIEHHLFPTMPRHNYHKVAPK [L24K] reads 1.79; that for LNFQIEHHLFPTMPRHNYHKVAPY [L24Y], 3.02. Take LNFQIEHHLFPTMPRHNYHKVAPM [L24M]: the protein stability index worked out at 1.81.

Turning to LNFQIEHHLFPTMPRHNYHKVAPR [L24R], the protein stability index turned out to be 1.51.

For LNFQIEHHLFPTMPRHNYHKVAPQ [L24Q], the protein stability index is 2.02. Consider LNFQIEHHLFPTMPRHNYHKVAPT [L24T], for which the protein stability index was 1.56. Still for that read-out and setting: the result for LNFQIEHHLFPTMPRHNYHKVAPW [L24W] reads 2.03. Turning to LNFQIEHHLFPTMPRHNYHKVAPN [L24N], the protein stability index turned out to be 2.15.

Regarding LNFQIEHHLFPTMPRHNYHKVAPP [L24P], the protein stability index came out at 2.3. Turning to LNFQIEHHLFPTMPRHNYHKVAPS [L24S], the protein stability index is 1.15.
